Measured values published in the nanobody polyreactivity screen of Harvey et al. (2022).

Assay: yeast display, Sf9 membrane polyspecificity reagent, FACS + sequencing; frameworks hold sequencing errors
Procedure, shortened: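 Nanobodies came from a synthetic yeast display library in Saccharomyces cerevisiae BJ5465, induced with galactose for 36–48 hours and stained for 1 hour at 4 °C with 10% biotinylated, detergent-solubilized Sf9 membrane reagent. Cells were enriched on streptavidin microbeads and then FACS-sorted, with low and high (top ~1%) gates set on anti-HA fluorescence for expression and streptavidin fluorescence for reagent binding. Each polyreactivity label reflects the gate a clone came from. Genes were amplified by colony PCR, sequenced by MiSeq 2 × 250 and filtered by CDR length.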

Sequence	polyreactivity (PSR sort gate)
QVQLEESAGGLVQAGGSLRLSCAASGYTFGRYAMGWYRQEPGKERELVAVITTGDSTYYADSVKGRFTISRDNAKNTVNLLMNSLKPEDTAVYYCAADGRLSRPFDYWGQGTQVTVSS	low polyreactivity
QVQLVESGGGLVQAGGSLRLSCAASGRTFYIYAMGWYRQAPGKERELVARITTGGRTNYADSVKGRFTISRDNAKNTVYLQMNSLKPEDTAVYYCATQYRGRQRKYDYWGQGTQVTVSS	high polyreactivity
QVQLVESGGGLVQAGGSLRLSCAASGLTFRYNTMGWYRQAPGKEREFVAAINYGGGSTYYADSVKGRFTISRDNAKNTVYLQMNSLKPEDTAVYYCARRTPRTPVTLYDYWGQGTQVTVSS	high polyreactivity
HVLLVESAGGLVQAGGSLRLSCAASGLIFHRYAMGWYRQAPGKERELVAAISSSGGITYYADSVKGRFTISRDNAKNTVYLQMNSLKPEDTAFYYCAADTGKGTPFSAGLGRAGDYWGQVTQVTVSS	low polyreactivity
QVQLVESGGGLVQAGGSLRLSCAASGFIFLLYDMGWYRQAPGKERELVAAITSDGTTNYADSVKGRFTISRDNAKNTVYLQMNSLKPEDTAVYYCAADGFTRWGRYDYWGQGTQVTVSS	high polyreactivity
QVQLVESGGGLVQAGGSLRLSCAASGSIFSSNAMGWYRPAPGKERELVAAISSGGTTNYADSVKGRFTISRDNAKHTVYLQMNSLKPEDTAVYYCAKRGPSRPAEYDYWGQGTQVTVSS	low polyreactivity
QVQLVESGGGLVQAGGSLRLSSAASGRIFYKYVMGWYRQATGKERELVATITSGGSTYYADSVKGRFTISRDNAKNTVYLQMNSLKPEDTAVFYCAARKYYSRAYDYWGQGTQVTVSS	high polyreactivity
QVQLVESGGGLVQAGGSLRLSCAASGSTFPYNAMGWYRQAPGKERELVAAITGRGGSTYYADSVKGRFTISRDNAKNTVYLQMNSLKPEDTAVYYCAARYLYLLYYWGQGTQVTVSS	high polyreactivity
QVQLVESGGGLVQAGGSLRLSCAASGFTFAFYDMGWYRQAPGKERELVAGISTSDGSTYYADSVKGRFTISRDNAKNTVYLQMNSLKPEDTAVYYCAASYYTYWWGYPVITFDYWGQGTQVTVSS	high polyreactivity
QVQLVESGGGLVQAGGSLRLSCAASGFTFFRYAMGWYRQAPGKERDLVAAITSGGGRTYYADSVKGRFTISRYNAKNTVYLQMNRLKPEDTAVYYCNAVRRVDMYYWGLGTQVTVSS	high polyreactivity
QVQLVESGGGLVQAGGSLRLSCAASGFTFTVYAMGWYRQAPGKERELVAVITSGDGTYYADSVKGRFTISRDNAKNTVYLQMHSLKPEDTAVYYCNARRYSSLRYRFAYDYWGQGTQVTESS	low polyreactivity
QVQLVESGGGLVQAGGSLRLSCAASGIIFSYNAMGWYRQAPGKERELVAAITRRGTRTYYADSVKGRFTISRDNAKNTVYLQMNSLKPEDSAVYYCAADYVRPGTKYDYWGQGTQVTVSS	high polyreactivity
QVQLVESGGGLVQAGGSLRLSCAAYGSIFKWYTMGWYRQAPGKERELVADINWNGGRTYYADSVKGRFTISRDYAKNTVYLQMNSLKPEDTAVFDCAASRGDYWGQGTQVTVSS	high polyreactivity
QVQLVESGGGLVQAGGSLRLTCAASGRTFFYNAMGWYRPAPGKERELVAAISWSGGRTYYADSVKGRFTISRDNAKNTVYLQMNSLKPEDTAVYYCASTGFYSSHYHLDYWGQGTQLTVSS	high polyreactivity
QVQLVESGGGLVQAGGRLRLSCAASGSISYFNDMGWYRQAPGKERELVAAIRDSGGITYADSVKGRFTISRDNAKNTVYLQMNSLKPEDTAVYYCATYGNEIYDYWGQGTQVTVSS	low polyreactivity
QDQLVESGGGLVQAGGSLRLSCAASGFTFYPYTRGWYRQAPGKERELVAAISKSGGSTYYADSVKGRFTISRDNAKNTVYLQMNSLKPEDSAVYYCAAQRYSYYTPDDDYWGQGTQVTVSS	high polyreactivity

Sequence	polyreactivity (PSR sort gate)
QVQLVESGRGLVQAGGSLSLSCAASGRIFYYYVMGWYRQAPGKERELVAVIDWSGGSTYYADSVKGRFTISRVNAKNTVYLQMNSLKPEDTAVYYCAKVGLNFSLAYEDYDYWGQGTQVTVSS	low polyreactivity
QVQLVESGGGLVQAGGSLRLSCAASGLIFSYNAMGWYRQAPGTEMELVASITGGGSTYYADSVKGRFTISRDNAKNTVYFQIKSQKPEDTAVYYCAVVRLWYAQPAAGFRAGGGYWGQGTQVTLSS	low polyreactivity
QVQLVESGGGLVQAGGSLRVSCAASGSTFILNAMGWYRQAPGKERELVATISSSDTSTYYADSVKGRFTISRDHAKNTVYLQMNSMKPEDTAVYYCNADYYTTAYLQRVYHYGVEYDYWGQVTQVTVSS	low polyreactivity
QVQLVESGVGLVQAGGSLRLSCAASGSTFDVYDMGWYRQAPGKERELVASISWDGDRTYYADSVKGRFTISRDNAKNTVYLQMKSLKPEDTAVYYCAATLRPYSSFPNRYGYWGQGTQVSVSS	low polyreactivity
QVQLVESGGGLVQAGGSLRLSCAASGFIFEWNAMGWYRQAPGKERELVASITFGGGNTYYADSVKGRFTISRDNAKNTVYLQMNSLKPEDTAVYYCAADDGVTYRGIIFSYLGQGTQVTVSS	low polyreactivity
QVQLVESGGGLVQAGGSLRLSCAASGIIFRSYAMGWYRQAPGKERELVAAITRSGGSTYADSVKGRFTISRDNAKNTVYLQMTSLKPEDTAVYYCAADRYSGWVYRRDYWGQGTQVTVSS	low polyreactivity
QVQLVESGGGLVQAGGSLRLSCAASGRTFRVYAMGWYRPAPGKERELVATITSSGGSTYYADSVKGRFTISRDNAKNTVYLQMNSLKPEDTAVYYCNVSVYYNYDSSYYYWGQGTQVTVSS	low polyreactivity
QVQLVESGGGLVQAGGSLRLSCAASGSTFSAYTMGWYRQAPGKERELVARITNGGSTYYADSVKGRFTISRDNAKNTVYLQMNSLKPEDTAVYYCNVQYYVSYWRSYDYWGQGTQVTVSS	high polyreactivity
QVQLEESGGGLVQAGGSLRLSCAASGRTFYIYVMGWYRPAPGKERELVASITKRVGGTFYADSVKGRFTISGDNAKNTVYLQMNSLKPEDTAVYYCNARARKSIRVGGYNYWGQGTQVTVSS	high polyreactivity
QVQLVESGGGLVQAGGSLRLSCAASGSTFGYYAMGWYRQAPGKERELVAAITRRSGRTYYADSVKGRFTISRDNAKNTVYLQMNSLKPEDTAVYYCNKVYPTYYYYRGGPTEYDYWGQGTQVTVSS	high polyreactivity
QVQLVESGGGLVQAGGSLRLSCAASGRNFGPYAMGWSRQAPGKERELVASITRSGGRTYYADSVKGRYTISRDNAKNTVYLQMNSLKPEDTAVYYCAAGGFSKSYYYWGQGTQVTVSS	high polyreactivity
QVQLVESGGGLVQAGGSLRLSCAASGFTFYYYALGWYRQAPGKERELVAAISTRDGNTYYADSVKGRFTISRDNAKNTVYLQMNSLKPEDTAVYYCAADSYSGYNYWGQGTQVTVSS	low polyreactivity
QGQLVESGGGLVQAGGSLRLSCAASGIIFGGYTMGWYRQAPGKERELVAAITKRTDRTYYADSVKGRFTISRDNAKNTVYLQMHSMKPEDTAVYYCATRGGITRPWYGYDYWGQGTQVTVSS	high polyreactivity
QVQLVESGGGLVQAGGSLRLSCAASGSTFKRYAMGWYRQAPGKERELVASISQRGGTTYYADSVKGRFTISRDNAKNTVYLQKNSLKPEDTAVYYCAKGFGWTRTIYDYWGQGTQVTVSS	high polyreactivity
QVQLVESGGGLVQAGGSLRLSCAASGFIFDSYAMGWYRQAPGKERELVAAISWSGSSTYYADSVKGRFTISRDNAKNTVYLQMNSLKPEDTAVYYCAALVYPYWGCSMYYWGQGTQVTVSS	high polyreactivity
